Patent publication US10669549B2, “Gold optimized CAR T-cells” (Chimera Bioengineering, Inc., priority 2016, dated 2020)

Columns and labels:
Format in all cases: cell-based
[1] = Expression from constructs with 3′-UTR RDEs after removal of microRNA binding sites; conditions: MIR186 micro-RNA sites removed from the 3′-UTR of IL-2
Description: The AU-rich element from the 3′-UTR of IL-2 has mir-181 and mir 186 microRNA binding sites. Different combinations of the microRNA sites were removed from the 3′-UTR of IL-2. When the MIR186 micro-RNA sites were removed from the 3′-UTR of IL-2 the dynamic range of expression from constructs with this UTR increased 50 fold. The modified IL-2, 3′-UTR replaces CTT in the sequence with GAA and is shown below (the new GAA is underlined in the sequence):
Different combinations of the micro-RNA sites were removed from the 3′UTR of IFNg and tested for increased expression. When the mir125 micro-RNA sites were removed from the 3′-UTR of IFN-γ the expression rate from constructs with this UTR is increased.

CD4+ T-cells [2] = assay: Luciferase bioluminescence of transduced T-cells, resting versus stimulated; conditions: for bioluminescence as compared to T-cells at resting: Raji target cells (activate CAR), FIG. 17; for amount of bioluminescence, comparison among RDE constructs: with either promoter (MinP or NFAT)
Description: The anti-CD19 CAR cassette and the insert with the luciferase-RDE1 are transcribed in opposite directions, and the control regions for each are located in between the two insert/cassettes. The control region for the Luciferase-RDE1 insert and Luciferase-3′-UTR were either a MinP promoter or an NFAT promoter having the sequences of:
The control region of the anti-CD19 CAR cassette was the MND promoter. CD4+ T-cells were transduced with the bicistronic construct.
The transduced T cells were allowed to return to resting state, and then were tested after stimulation as follows. For the ‘no stimulation’ set, transduced T-cells were incubated for 24 h alone in medium. For the ‘Raji co-culture’ set and the “CD3/CD28 Beads” set, CD19+ Raji B cells or anti-CD3/anti-CD28 beads were incubated with the transduced T cells for 24 h. At 24 h, the T cells were stained for CD25 and CD69, which are activation markers, and subject to flow cytometry to measure these markers and luciferase expression in the T cells.
Combinations of these inserts/cassettes shown in FIG. 17 were placed in the similar lenti virus constructs. The anti-CD19 CAR cassette and the insert with the luciferase-RDE are transcribed in opposite directions, and the control regions for each are located in between the two insert/cassettes. The control region for the Luciferase-RDE insert and Luciferase-3′-UTR were either a MinP promoter or an NFAT promoter. The control region of the anti-CD19 CAR cassette was the MND promoter, and CD4+ T-cells were transduced with the bicistronic construct.
(§1) The transduced T cells were allowed to return to resting state, and then were tested after stimulation as follows. For the ‘no stimulation’ set, transduced T-cells were incubated for 24 h alone in medium. For the ‘Raji co-culture’ set CD19+ Raji B cells were incubated with the transduced T cells for 24 h. At 24 h, the T cells were stained for CD25 and CD69, which are activation markers, and subject to flow cytometry to measure these markers and luciferase expression in the T cells.

CD4+ T-cells [3] = assay: IL-12 expression of transduced T cells by ELISA, resting versus Raji co-culture
Description: The anti-CD19 CAR cassette and the insert with the IL-12-RDE1 are transcribed in opposite directions, and the control regions for each are located in between the two insert/cassettes. The control region for the IL-12-RDE1 insert and IL-12 3′-UTR were either a minP promoter or an NFAT promoter. The control region of the anti-CD19 CAR cassette was the MND promoter. CD4+ T-cells were transduced with the bicistronic construct.
as §1, with “co-culture’ set,” for “co-culture’ set”, “these markers. IL-12” for “these markers and luciferase”, “T cells was measured by ELISA.” for “T cells.”

Molecule | increase of dynamic range of expression from constructs with this UTR [1] [fold] | increase in bioluminescence with CAR stimulation (CD4+ T-cells [2]; MinP promoter) [fold] | increase in bioluminescence with CAR stimulation (CD4+ T-cells [2]; NFAT promoter) [fold] | bioluminescence as compared to T-cells at resting (CD4+ T-cells [2]) | amount of bioluminescence, comparison among RDE constructs (CD4+ T-cells [2]) | on-off response from CAR stimulation versus TCR stimulation (CD4+ T-cells [2]; NFAT promoter, luciferase) | amount of bioluminescence compared with luciferase not controlled by an RDE (3′-UTR) (CD4+ T-cells [2]; all conditions, same promoter) | on-off response with NFAT promoter compared with MinP promoter and the corresponding RDE (CD4+ T-cells [2]; luciferase, Raji co-culture) | change in IL-12 expression from resting to CAR stimulation (CD4+ T-cells [3]; MinP promoter) [fold] | change in IL-12 expression from resting to CAR stimulation (CD4+ T-cells [3]; NFAT promoter) [fold]
RDE3: 3′-UTR of IL-2 modified to remove the mir186 sites (CTT replaced with GAA, SEQ ID NO: 29) (nucleic acid, listed as Homo sapiens) DNA: TAATTAAGTGCTTCCCACTTAAAACATATCAGGCCTTCTATTTATTTAAATATTTAAATTTTATATTTATTGTTGAATGTATGGTTTGCTACCTATTGTAACTATTATTCTTAATCTTAAAACTATAAATATGGATCTTTTATGATTGAATTTGTAAGCCCTAGGGGCTCTAAAATGGTTTCACTTATTTATCCCAAAATATTTATTATTATGTTGAATGTTAAATATAGTATCTATGTAGATTGGTTAGTAAAACTATTTAATAAATTTGATAAATATAAA | 50 | 1.4 | 1.3 | increase in bioluminescence | highest amount of bioluminescence | – | – | – | – | –
RDE1: RNA destabilizing element: endogenous 3′-UTR of IFNg (SEQ ID NO: 30), controlling luciferase or IL-12 in anti-CD19 CAR CD4+ T-cells (nucleic acid, listed as Homo sapiens) DNA: TGGTTGTCCTGCCTGCAATATTTGAATTTTAAATCTAAATCTATTTATTAATATTTAACATTATTTATATGGGGAATATATTTTTAGACTCATCAATCAAATAAGTATTTATAATAGCAACTTTTGTGTAATGAAAATGAATATCTATTAATATATGTATTATTTATAATTCCTATATCCTGTGACTGTCTCACTTAATCCTTTGTTTTCTGACTAATTAGGCAAGGCTATGTGATTACAAGGCTTTATCTCAGGGGCCAACTAGGCAGCCAACCTAAGCAAGATCCCATGGGTTGTGTGTTTATTTCACTTGATGATACAATGAACACTTATAAGTGAAGTGATACTATCCAGTTACTGCCGGTTTGAAAATATGCCTGCAATCTGAGCCAGTGCTTTAATGGCATGTCAGACAGAACTTGAATGTGTCAGGTGACCCTGATGAAAACATAGCATCTCAGGAGATTTCATGCCTGGTGCTTCCAAATATTGTTGACAACTGTGACTGTACCCAAATGGAAAGTAACTCATTTGTTAAAATTATCAATATCTAATATATATGAATAAAGTGTAAGTTCACAACTA | – | 4.1 | 8.5 | increase in bioluminescence | lowest amount of bioluminescence | larger on-off response | lower amounts of bioluminescence | larger on-off response | 6.3 | 168
RDE2: RNA destabilizing element: endogenous 3′-UTR of IL-2 (SEQ ID NO: 28), controlling luciferase in anti-CD19 CAR CD4+ T-cells (nucleic acid, listed as Homo sapiens) DNA: TAATTAAGTGCTTCCCACTTAAAACATATCAGGCCTTCTATTTATTTAAATATTTAAATTTTATATTTATTGTTGAATGTATGGTTTGCTACCTATTGTAACTATTATTCTTAATCTTAAAACTATAAATATGGATCTTTTATGATTCTTTTTGTAAGCCCTAGGGGCTCTAAAATGGTTTCACTTATTTATCCCAAAATATTTATTATTATGTTGAATGTTAAATATAGTATCTATGTAGATTGGTTAGTAAAACTATTTAATAAATTTGATAAATATAAA | – | 1.8 | 3.1 | increase in bioluminescence | between RDE3 and RDE1 | – | – | – | – | –
